Reference: PMC1352370

Key:
[1] = target: ΔAPEG-1, truncated Aortic Preferentially Expressed Protein-1 (15-113) (human); test: AUC; sedimentation equilibrium, dimer to monomers; 0 mM NaCl (salt series)
[2] = target: ΔAPEG-1, truncated Aortic Preferentially Expressed Protein-1 (15-113) (human); test: AUC; sedimentation equilibrium, dimer to monomers; 15 mM Tris-HCl pH 7.4, 0.1 M NaCl, 0.1 mM EDTA, 0.2% NaN3, 10°C; Kd from concentration-dependent Mw
[3] = target: Aortic Preferentially Expressed Protein-1 (APEG-1), full-length construct (2-113) (human); test: as above
APEG-1 (Homo sapiens) = APEG-1 (Homo sapiens) (UniProt Q15772); test: analytical ultracentrifugation (sedimentation equilibrium)

Chain of Aortic Preferentially Expressed Protein-1 (APEG-1), full-length construct (2-113) (natural protein) (Q15772 2-113): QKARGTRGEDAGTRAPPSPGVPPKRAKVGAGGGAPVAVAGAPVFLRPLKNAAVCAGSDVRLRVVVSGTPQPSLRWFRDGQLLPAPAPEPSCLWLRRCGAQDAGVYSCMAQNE

Which results are given for “ΔAPEG-1, truncated Aortic Preferentially Expressed Protein-1 (15-113) (domain or fragment)”?
Kd [1]: 2 to 200 µM; Kd [2]: 20 µM; stoichiometry N [2]: 2

For “Aortic Preferentially Expressed Protein-1 (APEG-1), full-length construct (2-113) (natural protein)”, which Kd [3] is on record?
The Kd was 20 µM.

What about the stoichiometry N [3] of the same substance?
The stoichiometry N was 2.

With APEG-1, Q15772 as the substance, how does the Kd (APEG-1 (Homo sapiens)) read?
Its Kd is 2 µM.
